Source: US11021533 (VANDERBILT UNIVERSITY, dated 2021)

molecular target: ZIKV strain H/PF/2013 (French Polynesia, 2013) virus (Zika virus, strain H/PF/2013); experiment: cell-based or functional assay

Binder	FRNT50 (focus reduction neutralization test on Vero cells) [ng/mL]
ZIKV-195 (antibody, V domains shown) VH: QVQVVESGGGVVQPGRSLRLSCAASGFTFSSSAMHWVRQAPGKGLEWVAVISYDGSNKYYGDSVKGRFTISRDNSKNTLYLQMHSLRAEDTAVYYCAKDRDAYNTVGYFAYYYGMDVWGQGTLVTVSS VL: QSVLTQPPSVSEAPRQRVTISCSGSSSNIGNNAVNWYQQLPGKAPKLLIYYDDLLPSGVSDRFSGSKSGTSASLAISGLQSEDEADYYCAAWDDSLTRYVFGTGTKVTVL	346
ZIKV-216 (antibody, V domains shown) VH: EVQLVQSGAEGKKPGESLKISCKGSGYNFSNYWIGWVRQMPGKGLEWMGIIYPGDSDTRYSPSFQGQVTISADKSINTAYLQWRSLRASDSAMFYCARGVMITTPNPYDWFDAWGQGTLVTVSS VL: QSALTQPASVSGSPGQSITISCTGTGSDIGTYDYVSWYQQHPGKAPKLMIYGVTKRPSGVSHRFSGSKSVNTASLTISGLQAEDEADYFCSSYSTSSTFVVFGGGTKLTVL	16
ZIKV-117 (antibody, V domains shown) VH: QVQLVESGGGVVRPGGSLRLSCAASGFTFKNYGIHWVRQAPGKGPEWVAFVRYDGNNKYYADSVKGRFTISRDNAKNTLSLQMNSLRVEDTAVYFCARDPETFGGFDYWGQGTLVTVSS VL: ETVMTQSPATLSVSPGERGTLSCRASESVSSNLAWYQQKPGKAPRLLIYGASTRATGIPDRFSGSGSGTEFTLTISSLQSEDFAVYYCQQYYYSPRTFGQGTKVEVK	5
ZIKV-116 (antibody, V domains shown) VH: EVKLVESGRGLVRPGGSLRLSCAASGFTFSNYAMSWVRQGPGMGLEWVSTITADSDSKYYVDSVKGRFTISRDNSKDTLFLHMTSLRAEDTAVYYCAKDRLSRGVGELYDSWGQGTLVTVSQ VL: DIQMTQSPSTLSASVGDRVTITCRASQSIDVWLAWYQQKPGKAPKLLMYKTSTLQTGVPSRFSGSGSGTEFTLTISSLQTDDFATYYCQKYDSYPWTFGPGTKVEIK	16
